# Laboratory results: patent US20050244966A1, “Insulin producing cells” (Ramot At Tel Aviv University Ltd., priority 2003, published 2005)
# B1: betacellulin (protein, UniProt P35070 32-111, looked up)
# Betacellulin: DGNSTRSPETNGLLCGDPEENCAATTTQSKRKGHFSRCPKQYKHYCIKGRCRFVVAEQTPSCVCDEGYIGARCERVDLFY
# notes: betacellulin (R&D Systems), soluble factor
# B2: activin A (protein, UniProt P08476 311-426, looked up)
# Inhibin beta A chain: GLECDGKVNICCKKQFFVSFKDIGWNDWIIAPSGYHANYCEGECPSHIAGTSGSSLSFHSTVINHYRMRGHSPFANLKSCCVPTKLRPMSMLYYDDGQNIIKKDIQNMIVEECGCS
# Key:
# FH-B-TPN cells [1] = assay: Insulin content of FH-B-TPN cells (RIA/ELISA of cell extracts); format: cell-based, human; conditions: for Insulin content: RIA; for Fold increase (insulin content): vs CM
# Experimental: FH cells were isolated and cultured as described (19), in Dulbecco's modified Eagle's medium containing 25 mM glucose and supplemented with 10% fetal bovine serum (FBS), 100 U/ml penicillin, 100 μg/ml streptomycin, 5 μM hydrocortisone, and 5 μg/ml insulin. A subclone of FH cells that was stably transduced with hTERT, designated FH-B-hTERT (FH-B), was cultured in the same medium, as described (20). FH-B cells transduced with the Pdx1 gene (see below), designated FH-B-TPN cells, were maintained in the same culture medium, with the exception of hydrocortisone and insulin (complete medium CM). For incubation in serum-free medium, the cells were placed in DMEM containing antibiotics, in the presence of 100 ng/ml insulin, 55 ng/ml transferrin, and 50 pg/ml selenium (ITS, Sigma). For all experiments activin A (Cytolab/PreproTech Asia, Rehovot, Israel) was added at a final concentration of 4 nM. except for those aimed at promoting differentiation of FH-B-TPN cells towards the beta-cell phenotype. There, addition of Act-A, as well as betacellulin (BTC, R&D Systems, Minneapolis, Minn.), nicotinamide (NA), exendin-4, and hepatocyte growth factor (HGF) (the last 3 compounds from Sigma-Aldrich) was at concentrations detailed herein below.
# (§1) Insulin secretion from FH-B-TPN cells was measured by static incubation as previously described (2). Cells were plated in 24-well plates at 10^5 cells per well. The cells were preincubated for 1 hour in Krebs-Ringer buffer (KRB), followed by incubation for the indicated period of time in KRB containing 0.5 mM 1-isobutyl 3-methylxanthine (IBMX) and glucose at various concentrations. The cells were then extracted in acetic acid, and the amount of insulin in the buffer and cell extract was determined by radioimmunoassay (RIA) using the INSIK-5 kit (DiaSorin, Vercelli, Italy) according to the manufacturer. This assay has <20% crossreactivity with proinsulin. In addition, insulin content was determined using an ELISA kit (Diagnostic Systems Laboratories, Webster, Tex. or (Mercodia, Uppsala, Sweden), which recognizes only mature insulin. Insulin content was normalized to total cellular protein, measured by the Bio-Rad (Hercules, Calif.) Protein Assay kit. Human C-peptide in the cell extract was determined using a RIA kit (DiaSorin, Vercelli, Italy) or ELISA kit (Mercodia, Uppsala, Sweden) according to the manufacturers.
# FH-B-TPN cells [2] = assay: Human C-peptide in cell extract and culture medium (ELISA); format: cell-based; conditions: SFM (6 d) then 3 nM Act-A in SFM (3 d)
# Experimental: as §1
# FH-B-TPN cells [3] = assay: RT-PCR analysis of gene expression in FH-B-TPN cells; format: cell-based, human; conditions: 4 nM activin A; FIG. 7
# Experimental: Total RNA was extracted from cultured cells, mature human hepatocytes (obtained from Incara Cell Technologies, North Carolina), and human pancreatic islets (obtained through the Juvenile Diabetes Research Foundation Islet Distribution Program), using commercial kits (High Pure RNA isolation kit, Roche Molecular Biochemicals, Mannhein, Germany; Trizol Reagent, Invitrogen Life Technologies, Carlsbad, Calif.).
# Specific transcripts were analyzed with Promega (Madison, Wis.) RT-PCR kit or GeneAmp Gold RNA PCR kit (Perkin Elmer Corp., Indianapolis, Ind.) or Superscript III RT-PCR (Invitrogene Life Technologies, Carlsbad, Calif.) according to the manufacturers. The absence of DNA contamination in RNA samples was confirmed with PCR primers flanking an intron. cDNA was amplified for 40 cycles (94° C. for 45 sec; annealing under conditions indicated in Table 1 below for 45 sec; 72° C. for 40 sec), using the primer pairs listed in Table 1 below.
# PCR products were separated by electrophoresis in 1.5%-2.5% agarose gels and visualized by ethidium bromide staining.
# FH-B-TPN cells [4] = assay: Cell doubling time by cell counting; TUNEL assay; format: cell-based, human
# Text: The cell doubling time, as determined by cell counting, was not affected by Act-A treatment in CM. […] No apoptotic cells were detected using a TUNEL assay under any of the conditions (data not shown).
# FH-B-TPN cells [5] = assay: Immunofluorescence analyses of protein expression in FH-B-TPN cells; format: cell-based, human; conditions: 6 days in serum-free medium with ITS and activin A; FIG. 8
# Experimental: FH-B-TPN cells plated in 6-well plates on sterilized coverslips were fixed in 4% paraformaldehyde. For cytoplasmic antigens, cells were blocked for 10 min at room temperature in 5% bovine serum albumin, 5% FBS and 0.1% Triton X-100, and stained with the antibodies as detailed in Table 2 diluted in blocking solution, for 1 hour at room temperature.
# For immunostaining of nuclear antigens, cells were permeabilized in 0.25% NP40 for 10 min at room temperature prior to blocking, followed by incubation with the primary antibody as detailed in Table 2 hereinabove. The stained cells were photographed under a Zeiss confocal microscope. FH-B, Cos7 or 293T cells were used as negative controls. Nuclei were visualized with DAPI (Roche) staining for 5 minutes at room temperature. Kidney tissue was fixed in 4% paraformaldehyde, embedded in paraffin, and sectioned. Sections were rehydrated, washed in PBS, and unmasked (if needed) in Unmasking Solution (Vector Laboratories, Burlingame, Calif.) according to the manufacturer. Sections were blocked for 2 h in 0.2% Tween 20 and 0.2% gelatin, incubated overnight at 4° C. with primary antibodies and 2 h at room temperature with the secondary antibodies as detailed in Table 2 hereinabove, stained with DAPI, and mounted. BrdU staining was performed as previously described (28b).
# [6] = FH-B-TPN cells, 4 nM in CM (6 d)
# [7] = SFM (6 d) then 3 nM Act-A in SFM (3 d)
molecule,measurement,setting,value
B1,Insulin content,FH-B-TPN cells [1]; [6],264 ± 7 ng/10^6 cells
same,Fold increase (insulin content),FH-B-TPN cells [1]; [6],1.4
B2,Human C-peptide secreted into the culture medium,FH-B-TPN cells [2],43.5±1.3 ng/10^6 cells
same,Human C-peptide levels in cells,FH-B-TPN cells [2]; ELISA,5153±180 ng/10^6 cells
same,Insulin content compared with serum-free medium without activin A,FH-B-TPN cells [1]; 6 days in serum-free medium supplemented with both ITS and activin A,further doubling
same,Insulin content,FH-B-TPN cells [1]; [6],729 ± 55 ng/10^6 cells
same,Insulin content,"FH-B-TPN cells [1]; FH-B-TPN cells, Act-A 3 nM in CM (3 d) + CM (6 d), mean ± SD (n = 3)",1661 ± 319 ng/10^6 cells
same,Fold increase (insulin content),"FH-B-TPN cells [1]; FH-B-TPN cells, Act-A 3 nM in CM (3 d) + CM (6 d)",8.8
same,Insulin content,"FH-B-TPN cells [1]; FH-B-TPN cells, Act-A 3 nM in CM (3 d) + SFM (6 d), mean ± SD (n = 3)",1493 ± 229 ng/10^6 cells
same,Fold increase (insulin content),"FH-B-TPN cells [1]; FH-B-TPN cells, Act-A 3 nM in CM (3 d) + SFM (6 d)",7.9
same,Insulin content,"FH-B-TPN cells [1]; FH-B-TPN cells, Act-A 3 nM in CM (3 d), mean ± SD (n = 3)",1399 ± 269 ng/10^6 cells
same,Fold increase (insulin content),"FH-B-TPN cells [1]; FH-B-TPN cells, Act-A 3 nM in CM (3 d)",7.4
same,Insulin content,"FH-B-TPN cells [1]; FH-B-TPN cells, Act-A 3 nM in SFM (3 d), mean ± SD (n = 3)",2143 ± 179 ng/10^6 cells
same,Fold increase (insulin content),"FH-B-TPN cells [1]; FH-B-TPN cells, Act-A 3 nM in SFM (3 d)",11.4
same,Concentration giving maximal (optimal) increase in insulin content,"FH-B-TPN cells [1]; FH-B-TPN cells, Act-A 1-8 nM in regular medium (CM) for 6 days, FIG. 9",3 nM
same,Fold increase (insulin content),"FH-B-TPN cells [1]; FH-B-TPN cells, SFM (6 d) + Act-A 3 nM in SFM (3 d)",33
same,Increase over insulin content of cells incubated 9 days in SFM without Act-A,FH-B-TPN cells [1]; [7],2.6 fold
same,Insulin content as share of the cellular protein content,FH-B-TPN cells [1]; [7],6%
same,Insulin content relative to normal human pancreatic islets,FH-B-TPN cells [1]; [7],about 60%
same,Share of stored insulin in the form of mature protein (ELISA vs RIA),FH-B-TPN cells [1]; [7],95%
same,Glucagon mRNA,FH-B-TPN cells [3],disappeared after an overnight treatment
same,PAX4 and GLUT2 mRNAs,FH-B-TPN cells [3],appeared following 3 days of treatment
same,Cell doubling time compared with cells growing in CM,FH-B-TPN cells [4],not affected
same,PP staining,FH-B-TPN cells [5],disappeared
same,"Percent of cells stained for GK, PC1/3, and PC2",FH-B-TPN cells [5],increase
same,Percent of cells stained for NGN3,FH-B-TPN cells [5],significant decrease
same,"Percentage of cells stained for ISL1, NKX6.1, and NKX2.2",FH-B-TPN cells [5],significant increase
